The data set deals with the molecule itself. Nature of the data set: crystal structure; oxidized EcAhpC_(1-186)-YFSKHN; hanging-drop vapour diffusion, 1.6 M ammonium sulfate, 100 mM MES pH 6.5, 5% dioxane, 4.5 mg/ml protein, 291 K; 2.7 Å; decamer in the asymmetric unit.

B1: chimeric EcAhpC_(1-186)-YFSKHN (enzyme, E. coli | human)
chain: MSLINTKIKPFKNQAFKNGEFIEITEKDTEGRWSVFFFYPADFTFVCPTELGDVADHYEELQKLGVDVYAVSTDTHFTHKAWHSSSETIAKIKYAMIGDPTGALTRNFDNMREDEGLADRATFVVDPQGIIQAIEVTAEGIGRDASDLLRKIKAAQYVASHPGEVCPAKWKEGEATLAPSLDLVGKYFSKHN
notes: C-terminal YFSKHN segment (helix with the YF motif) of human Prx2; Decamer (alpha2)5 in the crystal; In the oxidized form an intermolecular disulphide joins C47 and C166' of the two subunits of each dimer; the reduced form came from soaking oxidized crystals in 1 mM TCEP; The forward primer (NcoI, ATG GCA ATG TCC) may add residues before M1; also called chimeric Prx; Ox; copies: 10
What is called stoichiometry N is the number of molecules, sites or subunits per partner or assembly. As for B1, the “stoichiometry N” value came out at 10.
